Reference: the DeepSol protein solubility set

Experiment: soluble on expression in E. coli; label from the status in PepcDB or PDB records

Q: For “MGSDKIHHHHHHMYSTTQHQSPETVVTVSSLGKAYKIYNSKRDRAKQLIFQNRRKYFQEHWALRNISFDLRRGESIGIVGKNGSGKSTLLQLICGTLKPSQGEVIVNGKIAALLELGSGFNPEFSGRENVYLNASILGLNKQEIQERLDDILAFADIGNYVDQPVRTYSSGMVVRLAFSVIAHVDADILIVDEALSVGDAYFTQKCMRFIQRFQEKGSLLFVSHDANAILSLCNRALLINQGELKRVGKPKEVIEDYTRDLQKRNLADQNNKINRPERMKEQENTAHMKRQSGVQYTQKNIENEIMKWSDYRCKLINSSNLANTIVITRFDETLTTRETYGGEKAEITNVELENIETNKTIQNIKGGEIVRLRLKFEARTAIGRPIIGFILKNSKGLTILGDNTNNSISENNDFNAFEGDKVTTDFVFTVPMLQQGEYMISVSVADGCITEHEILHWMNDALLLRSQCTSIAAGLAGVPMHSISIEIEK”, which “soluble on expression in E. coli” value is on record?
A: not soluble

Q: For “MLPSKYEDNALQIKEKSTERTAPFFVLEVTARSAADILGIHPNSAALFYRKIRTVINHHLALAADEVFEGPVEPDESDFGGRRKGRRGRGAAGKVVVFGILKRNGRVYTVVVDNAKSETLLPVIKKKIMPDSIVYTDSLSSYDKLDVSGFIHYRINHSKECADRQNHINGIENFWNQAKRVLRKYNGIDRKSFPLFLKECEFRFNFGTPSQQLKILRDWCGILEHHHHHH”, which “soluble on expression in E. coli” value is on record?
A: not soluble

Q: Which “soluble on expression in E. coli” value does the source give for “MGSDKIHHHHHHMTYPKRIPINAWSEVHRVARPLIITFDAYNTLYATKLPVMEQYCIVGRKYGIKANPSTLTNNFPHVFKKLKEDYPQYGKYSGIKPEQWWSILIRNVFAPNEIPDEMINEILMRFEGFDSYFVYPDLIKFLKDLKSRHPDVILGIVSNTDPIFYKLLKNIGLFETFSGHIYLSYELNLAKPDRAIFQYALDDIISKQPHLLEKYTREEILQHCFHIGDELKNDLEGAEAAGWTGILLDRNDKYGFLSNSISKPMRDEYKLSIDKIDNNSINTWEANTKQTDTLQLSERKYVVSNLEVLEELFP” here?
A: not soluble

Q: Which “soluble on expression in E. coli” value does the source give for “GADEEESTPCDNVETDQQTFACAAFNKQVAERELQSAYDELIERMRDQFGDEAGLMSRIEAAEKVWSQLRDADCKVETHAEQPGSNAYQIAWNSCIAQRSDERAEYLRSLGSQNSDEPAPED” here?
A: soluble

Q: For “MGSDKIHHHHHHMGYVAVRGGSEAISRAEELVTCLRLLGGSTPLQLPQIRDQLRHAVSRAMHEGALYAPLLAALALKQAEGDSIEAAFLLRAYRTTLPRVMASLPASGRDISCLRRISASFKDIPGGQILGPASDYLIRLLQPDLAHETIVDVARAAEQYAALVEKGGIRSGEWGRFPKVADYMRQEQMIVDIPADSEETEPFDITREPLVFPCPRSARLQALMQADTGSLMCLAYSSVRGYGDAHPALVELRYGYLAIQVAHPLTGEPITIGEIEVTETEVASKAHSVTSRTGTPRFNVGYGFAFGQSELKTMSMAILDSVLTQARAGSLAGESGPAADEEFVLLHTDGIEASGFVAHFKLPHYVTFAADLSVLDRARDHHAQQQSRLHQLVDQALTE”, which “soluble on expression in E. coli” value is on record?
A: not soluble

Q: With “MHHHHHHSSGVDLGTENLYFQSMNITKGGLVLFSANSNSSCMELSKKIAERLGVEMGKVQVYQEPNRETRVQIQESVRGKDVFIIQTVSKDVNTTIMELLIMVYACKTSCAKSIIGVIPYFPYSKQCKMRKRGSIVSKLLASMMCKAGLTHLITMDLHQKEIQGFFNIPVDNLRASPFLLQYIQEEIPDYRNAVIVAKSPASAKRAQSFAERLRLGIAVIHGEAQDAESDLVDGRHSPPMVRSVAAIHPSLEIPMLIPKEKPPITVVGDVGGRIAIIVDDIIDDVDSFLAAAETLKERGAYKIFVMATHGLLSSDAPRRIEESAIDEVVVTNTIPHEVQKLQCPKIKTVDISMILSEAIRRIHNGESMSYLFRNIGLDD” as the sequence, how does the “soluble on expression in E. coli” value read?
A: soluble

Q: With “MTARPYEPPPDYPMIEQRWPTTVRNSSIHPHVSSAHPSYRSHSIDAAVNRSSSACFHSPHRPSFPSRGLQKYDYPICGVSPSRHLSYNHFYNQSAAEIEEMLRTRQFPEIAGIYGNDEQPSLRRFTRYNQSINSRAVPPPAPPNPPKMEKHMSHDTSGRGSIFSKSSKKPLFFMGNWTFRDRNKSARPSISEALREERPQSMNLSDIKPATRSKSGEVLGPRNHIHIESITEFPRNIETRVPVKIERSSMVRRKPSNMGGSTEVSITSSSPSPSSSSSTSTGEFKTTITVDDDHQPTAVMRPKKESDTRGTLNNNRYSFQSCVQLRKSCPDLDSTAMSNMEQHRVSKKRTRRAKEKMSQAAWKRKTVKEWSLDDVLLWLQSAQMDDVAGLLIGYDLRGEDLLQWNDQTLAQLGVSNPEIRKKLLDDLSKIIENGPEPAQEDIRNNHRTLFDIVKQTSYDQVLAVETPLTTRDITVTHGRLGCLQITKVNGANLPLKEHDCLLEINERAGEQFKSALMLTKLISDSNGAAIRFVVLRRKTNLVVEESQQKESSSSGISSSPQTPTE” as the sequence, how does the “soluble on expression in E. coli” value read?
A: not soluble

Q: Which “soluble on expression in E. coli” value does the source give for “MGSDKIHHHHHHLPLLLPVGSQILRNKMRSKPRILIALSSVGLGGAERQGLMFAEYLKCKHSFDVLVSTFGGEGKVSLLCKETGIQHVNIAYPLLGHRWEVWWKLISTALTLRKIKPDCIVSYCMPANAACAAVWRLTGARACIWGQRDAGLQKELLTPIPLAPRLATCFVSNSPHGAAFLENQLAIPRHKISTIPNAVKLNVAQLSRTEWRSRLKISHDAMIVTMVSNLSFRKDHETLLKAWRIGLDNQLFPQNTKLVLCGRDDSNAPVIRKLAGKLHLDNHIRFAGATDDVAGILNASDIAAFSFISEGLPNVVIESMAAGLPVVATDIPGVRAAIGSCDDNILVPPKDPAAMAHGIAKILQDPALRSRAAAANITQATSTFAPDVVFSAFAKLILSNI” here?
A: not soluble

Q: For “MGSDKIHHHHHHMPRYARKRSSTGIYHVMLKGIDGRDIFLDDEDKEKFIENMLKARDKGNFELYAYCLMDNHLHILIKESEGIGTSIKRIAVGYVQWHNNKYGRIGHLFQNRYLSEPVETESYLLTVVKYIHQNPLKARIVTQLADYKWSSYLQYLAAYKGDNSHIDPLLIMEYFKIQTEFESYMNEPTNSECLDYKQSSKYTDEILKNIIRESFGINDLIDMPNDMRNALIKDIYQSTGVSIRQLARVLGIGKSIVERALK”, which “soluble on expression in E. coli” value is on record?
A: not soluble

Q: For “TMITNSRGSVDLQPSLTGVFPSGLIETKVSAAKITENYQFDSRIRLNSIGFIPNHSKKATIAANCSTFYVVKEDGTIVYTGTATSMFDNDTKETVYIADFSSVNEEGTYYLAVPGVGKSVNFKIAMNVYEDAFKTAMLGMYLLRCGTSVSATYNGIHYSHGPCHTNDAYLDYINGQHTKKDSTKGWHDAGDYNKYVVNAGITVGSMFLAWEHFKDQLEPVALEIPEKNNSIPDFLDELKYEIDWILTMQYPDGSGRVAHKVSTRNFGGFIMPENEHDERFFVPWSSAATADFVAMTAMAARIFRPYDPQYAEKCINAAKVSYEFLKNNPANVFANQSGFSTGEYATVSDADDRLWAAAEMWETLGDEEYLRDFENRAAQFSKKIEADFDWDNVANLGMFTYLLSERPGKNPALVQSIKDSLLSTADSIVRTSQNHGYGRTLGTTYYWGCNGTVVRQTMILQVANKISPNNDYVNAALDAISHVFGRNYYNRSYVTGLGINPPMNPHDRRSGADGIWEPWPGYLVGGGWPGPKDWVDIQDSYQTNEIAINWNAALIYALAGFVNYNSPQNEVLYGDVNDDGKVNSTDLTLLKRYVLKAVSTLPSSKAEKNADVNRDGRVNSSDVTILSRYLIRVIEKLPI”, which “soluble on expression in E. coli” value is on record?
A: soluble

Q: For “MAHHHHHHMDSEKNSPLEYQETMNDLGEDIEDMEAQSINHGEAKMSVDIKSGKGDKGGEEVDVADAENVESNADNALYIYSTDSAKNILKENLEDYLKQLDFYKSNPKCKIDPAIYMEGTEEVENYVVKEKILITTYYQYIDMYESSIDVEEDLEREEIVYVEVPKYIIKYNPKVITNYIEKTIEVPSGEEIKRPVYKKLNVPYVVPHVVENETQVVLKKIVQPEIHTSNEEIEVEVQKYVPRLVPVNVYVPRYFGLSAKTTDEVEESVHYADLTQEQTDYLMKELNPHLDDLKKFNEEQLERMNEYIRESAQQAESHDLNPPKPELVSYDLDGSIQTLDYSDFTQFKEICQRELTC”, which “soluble on expression in E. coli” value is on record?
A: soluble

Q: Which “soluble on expression in E. coli” value does the source give for “MIHCDPFSINCFWENVIKFLQYDHSMFKIAITSVPARVDVSDLDRSLAYFLSDIGYIPKINPSTDMNSIKNSVYFRLFKECFLMNGERFWTPEELMSYLGTSRSTLYRHLNKLKYMDLLEEVKDGKIKKYRIRSGDILKAWSWVEINVKMAMDNYRSNVEHIVDLIRSNSNSNLRPLEHHHHHH” here?
A: not soluble
